Measured values reported in patent publication US20150104459A1.

What was measured:
[1] = molecular target: M2 protein of influenza A/Wisconsin/67/05 (H3N2), on inactivated whole virions (influenza A virus A/Wisconsin/67/05 (H3N2)); experiment: ELISA, positive control antibody on inactivated whole virions
[2] = molecular target: 23mer synthetic M2e peptide of A/Fort Worth/1/50 (influenza A virus A/Fort Worth/1/50 (H1N1)); experiment: ELISA, 23mer M2e peptide coated at 1 ug/ml

Sequence of TCN-032 (8I10) (antibody) (VH): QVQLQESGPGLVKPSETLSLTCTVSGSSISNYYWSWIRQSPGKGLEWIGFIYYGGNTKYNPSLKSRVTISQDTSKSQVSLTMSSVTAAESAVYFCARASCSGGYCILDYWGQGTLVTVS
Sequence of TCN-032 (8I10) (antibody) (VL): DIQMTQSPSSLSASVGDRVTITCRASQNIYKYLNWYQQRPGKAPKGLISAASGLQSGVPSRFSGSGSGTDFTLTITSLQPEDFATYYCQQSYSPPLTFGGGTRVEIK

Substance | ELISA virus binding (OD450) [1] [OD450] | EC50 [2] [µg/mL]
TCN-032 (8I10) (antibody) | 3.62 | –
chimeric mouse V-region/human IgG1 kappa 14C2 antibody | – | 0.01
